# Target: po2f1_human POU2F1 (UniProt P14859)
# UniProt P14859, sequence (P14859 whole entry): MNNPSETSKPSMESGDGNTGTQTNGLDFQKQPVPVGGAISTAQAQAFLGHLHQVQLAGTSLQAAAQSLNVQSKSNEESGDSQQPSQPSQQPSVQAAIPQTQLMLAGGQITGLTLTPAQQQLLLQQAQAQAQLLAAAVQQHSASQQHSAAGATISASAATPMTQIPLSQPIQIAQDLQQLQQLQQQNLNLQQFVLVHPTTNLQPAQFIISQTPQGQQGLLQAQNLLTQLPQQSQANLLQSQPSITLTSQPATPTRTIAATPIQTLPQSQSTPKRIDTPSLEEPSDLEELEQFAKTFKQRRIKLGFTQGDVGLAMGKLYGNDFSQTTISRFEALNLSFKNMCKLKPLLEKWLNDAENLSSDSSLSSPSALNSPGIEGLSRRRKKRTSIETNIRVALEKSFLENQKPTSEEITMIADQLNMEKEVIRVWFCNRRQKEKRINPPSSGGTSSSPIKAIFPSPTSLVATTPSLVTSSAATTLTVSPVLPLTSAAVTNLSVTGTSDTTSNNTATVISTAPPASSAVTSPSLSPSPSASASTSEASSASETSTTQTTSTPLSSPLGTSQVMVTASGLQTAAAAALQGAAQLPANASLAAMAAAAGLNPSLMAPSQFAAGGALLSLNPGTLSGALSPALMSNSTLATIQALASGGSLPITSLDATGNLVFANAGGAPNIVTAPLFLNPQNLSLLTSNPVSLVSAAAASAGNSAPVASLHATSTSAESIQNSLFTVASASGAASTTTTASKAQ
row,effect of a mutation on the interaction,Substance
1,decreasing interaction,"Host cell factor 1 (Homo sapiens), P51610 E289A;W290A;K291A"
2,decreasing interaction,"Host cell factor 1 (Homo sapiens), P51610 P134S"
3,decreasing interaction,"Host cell factor 1 (Homo sapiens), P51610 R344A;K345A"

# Target: creb3_human CREB3 (UniProt O43889)
# UniProt O43889, sequence (O43889 whole entry): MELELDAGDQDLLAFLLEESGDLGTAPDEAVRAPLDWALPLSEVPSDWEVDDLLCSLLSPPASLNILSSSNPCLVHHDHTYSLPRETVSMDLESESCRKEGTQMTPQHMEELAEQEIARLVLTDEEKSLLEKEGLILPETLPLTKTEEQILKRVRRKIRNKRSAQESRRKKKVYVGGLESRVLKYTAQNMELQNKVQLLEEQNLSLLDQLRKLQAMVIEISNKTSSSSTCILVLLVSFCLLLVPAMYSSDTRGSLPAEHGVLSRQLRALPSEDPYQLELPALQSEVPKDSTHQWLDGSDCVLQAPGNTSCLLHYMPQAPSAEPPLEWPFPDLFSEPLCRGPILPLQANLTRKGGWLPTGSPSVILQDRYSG
row,Substance,effect of a mutation on the interaction
1,"Host cell factor 1 (Homo sapiens), P51610 C82D",decreasing interaction
2,"Host cell factor 1 (Homo sapiens), P51610 P30S",decreasing interaction
3,"Host cell factor 1 (Homo sapiens), P51610 P79S",decreasing interaction
4,"Host cell factor 1 (Homo sapiens), P51610 P134S",decreasing interaction
5,"Host cell factor 1 (Homo sapiens), P51610 P319S",decreasing interaction

# The remaining lines, values ahead:
row,effect of a mutation on the interaction,Substance
1,decreasing interaction,"Host cell factor 1 (Homo sapiens), P51610 E289A;W290A;K291A"
2,decreasing interaction,"Host cell factor 1 (Homo sapiens), P51610 P197S"
3,decreasing interaction,"Host cell factor 1 (Homo sapiens), P51610 R228D"
4,decreasing interaction,"Host cell factor 1 (Homo sapiens), P51610 S338A"

# From IntAct's records for PubMed 10629049
